For 48 variants, abundance fitness results are on record in the Human Domainome abundance scans (Beltran et al. 2025).

B1: Intersectin-2, residues 1129 to 1183; numbered along this chain, Q9NZM3 (parent)
chain: VCQVIAMYDYAANNEDELSFSKGQLINVMNKDDPDWWQGEINGVTGLFPSNYVKM

± gives the uncertainty stated by the source.

This data set covers variants of B1. Description: abundance fitness (aPCA) (normalised: wild type 0, dead -1); higher = more abundant; growth selection in yeast, the domain comes from the species named. The note with it: Homo sapiens.
For VCQVIAMYDYAANNEDELSFSKTQLINVMNKDDPDWWQGEINGVTGLFPSNYVKM [G23T], the abundance fitness was -0.21 ± 0.048.

As to VCQVIAMYDYAANNEDELSFSKWQLINVMNKDDPDWWQGEINGVTGLFPSNYVKM [G23W], the abundance fitness is -0.201 ± 0.036. For the variant VCQVIAMYDYAANNEDELSFSKEQLINVMNKDDPDWWQGEINGVTGLFPSNYVKM [G23E], the abundance fitness is -0.098 ± 0.047. For VCQVIAMYDYAANNEDELSFSKNQLINVMNKDDPDWWQGEINGVTGLFPSNYVKM [G23N], the abundance fitness was determined as 0 ± 0.041. Consider VCQVIAMYDYAANNEDELSFSKCQLINVMNKDDPDWWQGEINGVTGLFPSNYVKM [G23C], for which the abundance fitness is -0.247 ± 0.059.

With VCQVIAMYDYAANNEDELSFSKRQLINVMNKDDPDWWQGEINGVTGLFPSNYVKM [G23R], the abundance fitness is -0.195 ± 0.028. In the case of VCQVIAMYDYAANNEDELSFSKHQLINVMNKDDPDWWQGEINGVTGLFPSNYVKM [G23H], the abundance fitness was determined as 0.023 ± 0.065.

With VCQVIAMYDYAANNEDELSFSKQQLINVMNKDDPDWWQGEINGVTGLFPSNYVKM [G23Q], the abundance fitness was -0.181 ± 0.048. With VCQVIAMYDYAANNEDELSFSKAQLINVMNKDDPDWWQGEINGVTGLFPSNYVKM [G23A] the figure was -0.161 ± 0.041; with VCQVIAMYDYAANNEDELSFSKYQLINVMNKDDPDWWQGEINGVTGLFPSNYVKM [G23Y], -0.047 ± 0.066; with VCQVIAMYDYAANNEDELSFSKPQLINVMNKDDPDWWQGEINGVTGLFPSNYVKM [G23P], -1.06 ± 0.12.

Consider VCQVIAMYDYAANNEDELSFSKDQLINVMNKDDPDWWQGEINGVTGLFPSNYVKM [G23D], for which the abundance fitness was -0.016 ± 0.057. Take VCQVIAMYDYAANNEDELSFSKMQLINVMNKDDPDWWQGEINGVTGLFPSNYVKM [G23M]: the abundance fitness is -0.262 ± 0.051.

Take VCQVIAMYDYAANNEDELSFSKKQLINVMNKDDPDWWQGEINGVTGLFPSNYVKM [G23K]: the abundance fitness was -0.103 ± 0.048.

VCQVIAMYDYAANNEDELSFSKVQLINVMNKDDPDWWQGEINGVTGLFPSNYVKM [G23V]: the abundance fitness is -0.903 ± 0.069. As to VCQVIAMYDYAANNEDELSFSKIQLINVMNKDDPDWWQGEINGVTGLFPSNYVKM [G23I], the abundance fitness is -0.866 ± 0.49. With VCQVIAMYDYAANNEDELSFSKSQLINVMNKDDPDWWQGEINGVTGLFPSNYVKM [G23S], the abundance fitness was -0.07 ± 0.031. For the variant VCQVIAMYDYAANNEDELSFSKGQIINVMNKDDPDWWQGEINGVTGLFPSNYVKM [L25I], the abundance fitness is 0.006 ± 0.04. Consider VCQVIAMYDYAANNEDELSFSKGQQINVMNKDDPDWWQGEINGVTGLFPSNYVKM [L25Q], for which the abundance fitness is -0.089 ± 0.064.

On to VCQVIAMYDYAANNEDELSFSKGQCINVMNKDDPDWWQGEINGVTGLFPSNYVKM [L25C], for which the abundance fitness is -0.088 ± 0.051. With VCQVIAMYDYAANNEDELSFSKGQTINVMNKDDPDWWQGEINGVTGLFPSNYVKM [L25T], the abundance fitness is -0.059 ± 0.055. With VCQVIAMYDYAANNEDELSFSKGQHINVMNKDDPDWWQGEINGVTGLFPSNYVKM [L25H] the figure was -0.054 ± 0.039.

Take VCQVIAMYDYAANNEDELSFSKGQDINVMNKDDPDWWQGEINGVTGLFPSNYVKM [L25D]: the abundance fitness stood at 0.024 ± 0.065. In the case of VCQVIAMYDYAANNEDELSFSKGQPINVMNKDDPDWWQGEINGVTGLFPSNYVKM [L25P] it was -0.126 ± 0.056; in that of VCQVIAMYDYAANNEDELSFSKGQGINVMNKDDPDWWQGEINGVTGLFPSNYVKM [L25G], -0.035 ± 0.032; in that of VCQVIAMYDYAANNEDELSFSKGQKINVMNKDDPDWWQGEINGVTGLFPSNYVKM [L25K], -0.064 ± 0.052. With VCQVIAMYDYAANNEDELSFSKGQVINVMNKDDPDWWQGEINGVTGLFPSNYVKM [L25V] the figure was -0.011 ± 0.03; with VCQVIAMYDYAANNEDELSFSKGQEINVMNKDDPDWWQGEINGVTGLFPSNYVKM [L25E], 0.057 ± 0.041; with VCQVIAMYDYAANNEDELSFSKGQSINVMNKDDPDWWQGEINGVTGLFPSNYVKM [L25S], -0.01 ± 0.032. VCQVIAMYDYAANNEDELSFSKGQMINVMNKDDPDWWQGEINGVTGLFPSNYVKM [L25M]: the abundance fitness stood at 0.031 ± 0.049. In the case of VCQVIAMYDYAANNEDELSFSKGQNINVMNKDDPDWWQGEINGVTGLFPSNYVKM [L25N] it was -0.054 ± 0.068; in that of VCQVIAMYDYAANNEDELSFSKGQFINVMNKDDPDWWQGEINGVTGLFPSNYVKM [L25F], -0.006 ± 0.058.

Regarding VCQVIAMYDYAANNEDELSFCKGQLINVMNKDDPDWWQGEINGVTGLFPSNYVKM [S21C], the abundance fitness was -0.053 ± 0.049. In the case of VCQVIAMYDYAANNEDELSFAKGQLINVMNKDDPDWWQGEINGVTGLFPSNYVKM [S21A] it was 0.001 ± 0.033. Take VCQVIAMYDYAANNEDELSFQKGQLINVMNKDDPDWWQGEINGVTGLFPSNYVKM [S21Q]: the abundance fitness was -0.137 ± 0.062. Take VCQVIAMYDYAANNEDELSFTKGQLINVMNKDDPDWWQGEINGVTGLFPSNYVKM [S21T]: the abundance fitness is -0.028 ± 0.046. Regarding VCQVIAMYDYAANNEDELSFRKGQLINVMNKDDPDWWQGEINGVTGLFPSNYVKM [S21R], the abundance fitness is -0.02 ± 0.036. For the variant VCQVIAMYDYAANNEDELSFPKGQLINVMNKDDPDWWQGEINGVTGLFPSNYVKM [S21P], the abundance fitness was -0.04 ± 0.042.

For the variant VCQVIAMYDYAANNEDELSFDKGQLINVMNKDDPDWWQGEINGVTGLFPSNYVKM [S21D], the abundance fitness is -0.021 ± 0.035. Consider VCQVIAMYDYAANNEDELSFNKGQLINVMNKDDPDWWQGEINGVTGLFPSNYVKM [S21N], for which the abundance fitness is -0.006 ± 0.047. In the case of VCQVIAMYDYAANNEDELSFIKGQLINVMNKDDPDWWQGEINGVTGLFPSNYVKM [S21I], the abundance fitness was -0.045 ± 0.074. Turning to VCQVIAMYDYAANNEDELSFWKGQLINVMNKDDPDWWQGEINGVTGLFPSNYVKM [S21W], the abundance fitness was -0.125 ± 0.053. With VCQVIAMYDYAANNEDELSFMKGQLINVMNKDDPDWWQGEINGVTGLFPSNYVKM [S21M] the figure was -0.05 ± 0.045; with VCQVIAMYDYAANNEDELSFFKGQLINVMNKDDPDWWQGEINGVTGLFPSNYVKM [S21F], -0.117 ± 0.058. VCQVIAMYDYAANNEDELSFYKGQLINVMNKDDPDWWQGEINGVTGLFPSNYVKM [S21Y]: the abundance fitness was -0.12 ± 0.051. For VCQVIAMYDYAANNEDELSFKKGQLINVMNKDDPDWWQGEINGVTGLFPSNYVKM [S21K], the abundance fitness turned out to be 0.002 ± 0.056.

For the variant VCQVIAMYDYAANNEDELSFVKGQLINVMNKDDPDWWQGEINGVTGLFPSNYVKM [S21V], the abundance fitness is -0.032 ± 0.037. For the variant VCQVIAMYDYAANNEDELSFHKGQLINVMNKDDPDWWQGEINGVTGLFPSNYVKM [S21H], the abundance fitness was 0.082 ± 0.062.
